In US11541125B2, “Noncrushable pill formulations” (THE REGENTS OF THE UNIVERSITY OF CALIFORNIA, priority 2016, dated 2023):
Like-named read-outs stand apart in the source and are kept apart here. Square brackets hold non-standard residues; d marks the D form. Side chains are listed from the residue outwards. Peptide text beside a SMILES is read from it. * marks the point of attachment. ξ: configuration not given here. X2 = CN(CCN*)C(=S)Oc1ccc2c3c1O[C@H]1C(=O)CC[C@@]4(O)[C@@H](C2)N(CC2CC2)CC[C@]314; X1 = CN(CCN*)C(=O)Oc1ccc2c3c1OC1C(=O)CCC4(O)C(C2)N(CC2CC2)CCC314; X4 = CN(CCN*)C(=O)Oc1ccc([N+](=O)[O-])cc1; Trt = c1ccc(C(c2ccccc2)(c2ccccc2)*)cc1; ξF = NC(Cc1ccccc1)C(=O)O; Boc = CC(C)(C)OC(=O)*; ξK = NCCCCC(N)C(=O)O; ξC = NC(CS)C(=O)O; ξA = CC(N)C(=O)O

Legend:
[1] = Method: In order to determine the stability of the enzymatically cleavable covalent linkage between the dual-enzyme responsive peptide and Naltrexone, the drug conjugates (below) were synthesized and subjected to a range of different pH buffers that were chosen to emulate the pH range of typical household chemicals (pH 2-10).
The stabilities of these linkages were assessed by HPLC by monitoring the relative amount of Naltrexone versus the intact peptide-Naltrexone conjugate.

[2] = system: trypsin and/or chymotrypsin; assay: pNA release assay (absorbance at 405 nm); assay type: biochemical; settings: 2 mM, incubated with trypsin and/or chymotrypsin, 90 minutes, 37° C.
Method: A stock solution of the CAAK(F)-diamino-pNA was prepared in dimethyl sulfoxide (DMSO) to produce a 16.0 mg/mL solution. A 7.5 mg/mL stock solution of the trypsin was prepared in 50 mM NH4HCO3 buffer (pH=8.05). A 7.5 mg/mL stock solution of chymotrypsin was prepared in 50 mM NH4HCO3 buffer (pH=8.05).
A 96 well plate was used for monitoring the solutions at 405 nm using a plate reader. 20 μL of the peptide was combined with 62.0/66.6 μL of no enzyme, trypsin only, chymotrypsin only, or with both enzymes respectively. All solutions were diluted to a total volume of 200 μL using 50 mM NH4HCO3 (pH=8.05). Blanks were prepared by combining the enzymes with DMSO/buffer and their absorbances were subtracted from the cleavage conditions. Additionally, the residual signal from the peptide in the presence of no enzymes was also used as a blank and subtracted out from enzymatic conditions.

[3] = conjugate sample, no pH buffer named

SMILES	stability over the entire pH range ([1]; HPLC, pH buffers)	Percent Degradation, t = 0.5 hr [1, 3] [%]	Percent Degradation, t = 24 hr [1, 3] [%]	Percent Degradation, t = 0.5 hr ([1]; in pH 2) [%]	Percent Degradation, t = 0.5 hr ([1]; in pH 4) [%]	Percent Degradation, t = 0.5 hr ([1]; in pH 7) [%]	stability of the linkage relative to the other linkers ([1]; HPLC, Naltrexone versus intact conjugate, pH buffers)	Percent Degradation, t = 24 hr ([1]; in pH 2) [%]	theoretical pNA released [2] [%]
CC(=O)NC(CSC(c1ccccc1)(c1ccccc1)c1ccccc1)C(=O)NC(C)C(=O)NC(C)C(=O)NC(CCCCNC(=O)C(Cc1ccccc1)NC(=O)OC(C)(C)C)C(=O)NCCN(C)C(=O)Oc1ccc2c3c1OC1C(=O)CCC4(O)C(C2)N(CC2CC2)CCC314 (centres unmarked) [NPC] (Ac-C(Trt)AAK([Phe-Boc])-X1; configuration not given here)	very good stability	0	0	6.00	3.50	1.50			
CC(=O)NC(CS)C(=O)NC(C)C(=O)NC(C)C(=O)NC(CCCCNC(=O)C(N)Cc1ccccc1)C(=O)NCCN(C)C(=S)Oc1ccc2c3c1O[C@H]1C(=O)CC[C@@]4(O)[C@@H](C2)N(CC2CC2)CC[C@]314 (some centres unmarked) [NPT] (Ac-[ξC][ξA][ξA][ξK](ξF)-X2)		0.51	2.90				more stable than the carbamate linker	4.10	
CC(=O)NC(CS)C(=O)NC(C)C(=O)NC(C)C(=O)NC(CCCCNC(=O)C(N)Cc1ccccc1)C(=O)NCCN(C)C(=O)Oc1ccc([N+](=O)[O-])cc1 (centres unmarked) [CAAK(F)-diamino-pNA] (Ac-CAAK(Phe)-X4; configuration not given here)									55
